For assay [1], the target named is T1, Arabidopsis SERRATE core (SE core, residues 194-543), hexahistidine-tagged (Arabidopsis thaliana, UniProt Q9ZVD0 194-543).
T1 sequence (looked up): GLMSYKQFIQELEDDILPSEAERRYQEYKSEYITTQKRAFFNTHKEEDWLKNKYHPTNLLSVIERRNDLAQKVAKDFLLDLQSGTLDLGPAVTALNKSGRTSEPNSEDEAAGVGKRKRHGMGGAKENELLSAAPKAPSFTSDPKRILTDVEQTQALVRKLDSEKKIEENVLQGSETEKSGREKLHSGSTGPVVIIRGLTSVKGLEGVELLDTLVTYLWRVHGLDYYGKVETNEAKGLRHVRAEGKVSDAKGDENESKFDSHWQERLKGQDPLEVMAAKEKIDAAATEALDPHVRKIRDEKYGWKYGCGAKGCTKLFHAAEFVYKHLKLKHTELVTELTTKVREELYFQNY
The assay can be described thus: pull-down.

Assay [2] addresses T2, GST-fused SE Middle domain (SE-Mid, residues 248-470) (Arabidopsis thaliana, UniProt Q9ZVD0 248-470).
T2 sequence (looked up): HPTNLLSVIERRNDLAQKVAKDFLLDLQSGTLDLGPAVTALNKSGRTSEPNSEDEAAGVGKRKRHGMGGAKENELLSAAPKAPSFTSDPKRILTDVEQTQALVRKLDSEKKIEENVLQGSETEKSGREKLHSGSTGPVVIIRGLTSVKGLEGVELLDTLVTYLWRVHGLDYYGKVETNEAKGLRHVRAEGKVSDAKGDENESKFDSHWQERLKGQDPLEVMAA
As to the kind of experiment: pull-down.

This note sets out measurements from PMC3177193 (Nucleic Acids Research, 2011).

B1: GST-fused HYL1 RBD2 (residues 100-172) (domain or fragment, Arabidopsis thaliana, UniProt O04492 100-172, looked up)
chain: GLCKNLLQEYAQKMNYAIPLYQCQKVETLGRVTQFTCTVEIGGIKYTGAATRTKKDAEISAGRTALLAIQSDT
Turning to B1, the binding result in assay [1] is “binds”.

B2: Non-tagged HYL1 RBD2 (residues 100-172) (domain or fragment, Arabidopsis thaliana, UniProt O04492 100-172, looked up)
chain: B1 chain
Turning to B2, the binding result in assay [2] is “binds”.

B3: GST-fused HYL1 RBD1+2 (residues 15-172) (domain or fragment, Arabidopsis thaliana, UniProt O04492 15-172, looked up)
chain: VFKSRLQEYAQKYKLPTPVYEIVKEGPSHKSLFQSTVILDGVRYNSLPGFFNRKAAEQSAAEVALRELAKSSELSQCVSQPVHETGLCKNLLQEYAQKMNYAIPLYQCQKVETLGRVTQFTCTVEIGGIKYTGAATRTKKDAEISAGRTALLAIQSDT
On to B3, for which, in assay [1], the binding result is given as “binds”.
